Source: US12514853B2, “Therapeutic dendrimer” (Starpharma Pty Ltd, priority 2018, dated 2026)
Where “and” joins values, the source holds several entries; their conditions need not be identical. Identical values can stand only once. Like-named read-outs stand apart in the source and are kept apart here.

Experiments:
[1] = tested on: HT-29 cells (human colon cancer cell line); assay: In-vitro anti-cancer drug screening, cell counting (SRB) assay; type: cell-based; settings: concentration required to inhibit net cell growth by 50%
Method: A study was carried out to determine the ability of example dendrimers to inhibit growth of HT-29 cells (human colon cancer cell line) using a cell counting (SRB) assay.

[2] = SN-38 release from dendrimers in 9:1 PBS/DMA at 37° C. and pH 7.4; type: physicochemical; settings: SN-38 released, pH 7.4, 1 mg/mL dendrimer
Method: A study was carried out to determine the rate of SN-38 release from certain dendrimeric compounds in 9:1 PBS (phosphate-buffered saline): DMA at 37° C. and pH 7.4.
The PBS release study was conducted by preparing 1 mg/mL solutions of dendrimer in 9:1 v/v (PBS/DMA) immediately prior to incubation at 37° C. Samples were analysed at 6 h and 18 h and other timepoints by HPLC, comparing the % peak area of SN-38 to the % peak area of dendrimer construct. HPLC (C8 Xbridge, 3×100 mm), gradient: 5% ACN/H2O (0-1 min), 5-80% ACN (1-7 min), 80% ACN (7-12 min), 80-5% ACN (12-13 min), 5% ACN (13-15 min), 243 nm, 10 mM ammonium formate buffer, 0.4 mL/min.

[3] = plasma release study (SN-38 release in rat plasma); type: in vitro ADME; settings: 37° C.
[4] = tested on: HT-29 (human colon carcinoma cell line) xenograft; assay: Efficacy in HT-29 xenograft model in mice; type: in vivo, Balb/c nude mice; settings: for effect on HT-29 tumour growth: 2f 15, 2i 15, 2h 25 mg/kg SN-38 equivalents IV once weekly; for Tumour growth inhibited: day 36, vs vehicle, irinotecan 90 mg/kg, 2f 15, 2i 15, 2h 25 mg/kg IV
[5] = tested on: SW620 (human colon carcinoma cell line) xenograft; assay: Efficacy in SW620 xenograft model in mice; settings: for effect on SW620 tumour growth / tolerability: irinotecan 90 mg/kg; for effect on SW620 tumour growth: 2f 15, 2i 15, 2h 25, 2a 25 mg/kg IV days 1, 8, 15, study to day 119; for tolerability: 2f 15, 2i 15, 2h 25, 2a 25 mg/kg IV once weekly for three weeks
[6] = for tolerability: 2f 15 mg/kg, 2i 15 mg/kg, 2h 25 mg/kg, 2a 30 mg/kg SN-38 equivalents, IV once weekly for three weeks
[7] = tested on: HT-29 (human colon carcinoma cell line) xenograft; assay: Efficacy alone or in combination with olaparib in HT-29 xenograft model in mice; type: in vivo, Balb/c nude mice; settings: for Percent TGI: day 28; for effect on HT-29 tumour growth (in words): olaparib 50 mg/kg orally, irinotecan 80 mg/kg IV, their combination, 2f 5 and 8 mg/kg IV
Method: Olaparib solid powder obtained from MedChemExpress was solubilised in DMSO and an oral formulation was prepared at a final concentration of 5 mg/ml in 10% DMSO: 15% (2-Hydroxypropyl)-β-cyclodextrin in sterile water.
The endpoint for the analysis was a tumour volume of 1200 mm^3.
Statistical analysis of tumour growth was performed on day 28 when the first study animals reached endpoint criteria for tumour burden.

[8] = patients to which irinotecan is administered; cited from earlier work
[9] = tested on: MDA-MB-231 (human breast carcinoma cell line) xenograft; assay: Efficacy in MDA-MB-231 xenograft model in mice; type: in vivo, Balb/c nude mice; settings: irinotecan 90 mg/kg, 2f 15, 2h 25 mg/kg IV once weekly for three weeks
[10] = Single dose pharmacokinetic study in rats; settings: rat, single slow bolus IV
[11] = tested on: CAPAN-1 (pancreatic cancer cell line) xenograft; assay: Efficacy in CAPAN-1 xenograft model in mice; type: in vivo
[12] = tested on: HT-29 (human colon carcinoma cell line) xenograft; assay: Efficacy alone or in combination with cetuximab in HT-29 xenograft model in mice
[13] = 15 mg/kg SN-38 equivalents IV once weekly for 3 weeks
[14] = 20 mg/kg SN-38 equivalents IV once weekly for 3 weeks
[15] = 30 mg/kg SN-38 equivalents IV once weekly for 3 weeks
[16] = olaparib 50 mg/kg orally 5 days on/2 days off for 3 weeks, irinotecan 80 mg/kg IV days 1, 8, 15
[17] = high dose 2f (approx. 16.5 mg/kg SN-38 equivalents)
[18] = low dose 2f (approx. 1.3 mg/kg SN-38 equivalents)
[19] = medium dose 2f (approx. 7.5 mg/kg SN-38 equiv)

BHALys[Lys]32[α-DGA-C10-SN-38]32†[ε-PEG˜2300]32‡ [Dendrimer 2e]
GI50 [1]: < 0.01 µM
% Release at 6 h in 9:1 PBS/DMA at 37° C. [2]: 64%
% Release at 18 h in 9:1 PBS/DMA at 37° C. [2]: 71%
% SN-38 released ([3]; 0.5 h): 30.58%
% SN-38 released ([3]; 2 h): 57.54%
% SN-38 released ([3]; 4 h): 67.96%
% SN-38 released ([3]; 6 h): 75.16%
% SN-38 released ([3]; 22 h): 95.38%

BHALys[Lys]32[α-TDA-C20-Irinotecan]32†[ε-PEG˜2100]32‡ [Dendrimer 2k]
GI50 [1]: 46 µM

BHALys[Lys]32[α-TDA-C10-SN-38]32†[ε-PEG˜2100]32‡ [Dendrimer 2c]
GI50 [1]: 0.03 µM
% Release at 6 h in 9:1 PBS/DMA at 37° C. [2]: 54%
% Release at 18 h in 9:1 PBS/DMA at 37° C. [2]: 55%
% SN-38 released ([3]; 0.5 h): 20.52%
% SN-38 released ([3]; 2 h): 38.32%
% SN-38 released ([3]; 4 h): 48.79%
% SN-38 released ([3]; 6 h): 53.42%
% SN-38 released ([3]; 22 h): 69.8%

BHALys[Lys]32[α-THF-C20-SN-38]32†[ε-PEG˜2300]32‡ [Dendrimer 2i]
% Release at 6 h in 9:1 PBS/DMA at 37° C. [2]: 40%
% Release at 18 h in 9:1 PBS/DMA at 37° C. [2]: 60%
effect on HT-29 tumour growth [4]: induce transient regression of HT-29 tumours
Tumour growth inhibited [4]: 103%
effect on SW620 tumour growth [5]: induce regression of SW620 tumours
tolerability [5]: well tolerated
Max. body weight loss (%) [6, 13]: 8%
Max. body weight loss (%) [6, 14]: 15%
Max. body weight loss (%) [6, 15]: 15%
tolerability [6]: well tolerated

CCc1c2c(nc3ccc(OC(=O)N4CCC(N5CCCCC5)CC4)cc13)-c1cc3c(c(=O)n1C2)COC(=O)[C@]3(O)CC [Irinotecan, reference compound]
GI50 ([1]; Homo sapiens): 7 µM
Percent TGI [7, 16]: 33%
effect on HT-29 tumour growth (in words) [7]: moderate effect on tumour growth
Tumour growth inhibited [4]: 23%
patients with early symptoms of gastrointestinal toxicity (diarrhea, emesis, diaphoresis, abdominal cramping) [8]: up to 80%
effect on SW620 tumour growth [5]: delay of tumour growth with the exception of one tumour, which completely regressed after day 25
effect on MDA-MB-231 tumour growth [9]: continued to grow during drug treatment
signs of toxicity ([6]; 100 mg/kg irinotecan): pale extremities and lethargy

BHALys[Lys]32[α-Glu-C10-SN-38]32†[ε-PEG˜2300]32‡ [Dendrimer 2a]
GI50 [1]: 0.13 µM
% Release at 6 h in 9:1 PBS/DMA at 37° C. [2]: 9%
% Release at 18 h in 9:1 PBS/DMA at 37° C. [2]: 38%
% SN-38 released ([3]; 0.5 h): 1.59%
% SN-38 released ([3]; 2 h): 4.47%
% SN-38 released ([3]; 4 h): 7.57%
% SN-38 released ([3]; 6 h): 11.28%
% SN-38 released ([3]; 22 h): 42.46%
animals euthanized due to weight loss ([5]; 2a 25 mg/kg IV days 1, 8, 15, group of 6): One animal from the 2a group was euthanized during the study due to weight loss on Day 99
effect on SW620 tumour growth [5]: induce regression of SW620 tumours
tolerability [5]: well tolerated
Max. body weight loss (%) ([6]; 10 mg/kg SN-38 equivalents IV once weekly for 3 weeks): 0%
Max. body weight loss (%) [6, 15]: 10%
tolerability [6]: well tolerated

BHALys[Lys]32[α-DGA-C20-SN-38]32†[ε-PEG˜2100]32‡ [Dendrimer 2f]
GI50 [1]: 0.05 µM and 0.04 µM
AUC0-∞, free SN-38 [10, 17]: 6,677 ng · hr/mL
Cmax, free SN-38 [10, 17]: 289 ng/mL
Cmax, total SN-38 [10, 17]: 306,500 ng/mL
Free SN-38 at 120 hours [10, 17]: 10.8 ng/mL
Total SN-38 at 120 hours [10, 17]: 792.5 ng/mL
AUC0-∞, free SN-38 [10, 18]: 1,196 ng · hr/mL
Cmax, free SN-38 [10, 18]: 93 ng/mL
Cmax, total SN-38 [10, 18]: 32,767 ng/mL
Free SN-38 at 120 hours [10, 18]: 0.8 ng/mL
Total SN-38 at 120 hours [10, 18]: 111.5 ng/mL
AUC0-∞, free SN-38 [10, 19]: 3,179 ng · hr/mL
Cmax, free SN-38 [10, 19]: 164 ng/mL
Cmax, total SN-38 [10, 19]: 150,334 ng/mL
Free SN-38 at 120 hours [10, 19]: 3.7 ng/mL
Total SN-38 at 120 hours [10, 19]: 498 ng/mL
% Release at 6 h in 9:1 PBS/DMA at 37° C. [2]: 24%
% Release at 18 h in 9:1 PBS/DMA at 37° C. [2]: 55%
tumour growth and tumour regression versus irinotecan ([7]; 2f 5 and 8 mg/kg vs irinotecan 80 mg/kg, P <0.0001): significantly inhibited tumour growth and prolonged tumour regression versus irinotecan
tumour regression versus olaparib ([7]; 2f 5 and 8 mg/kg vs olaparib 50 mg/kg): prolonged tumour regression versus olaparib
Percent TGI ([7]; 5 mg/kg 2f IV days 1, 8, 15, alone or with olaparib 50 mg/kg orally): 62%
Percent TGI ([7]; 8 mg/kg 2f IV days 1, 8, 16, alone or with olaparib 50 mg/kg orally): 94% and 97%
effect on HT-29 tumour growth (in words) [7]: clear dose dependent repose with statistically significant inhibition of tumour growth
% SN-38 released ([3]; 0.5 h): 5.06%
% SN-38 released ([3]; 2 h): 24.56%
% SN-38 released ([3]; 4 h): 45.36%
% SN-38 released ([3]; 6 h): 61.81%
% SN-38 released ([3]; 22 h): 95.61%
effect on CAPAN-1 tumour growth ([11]; administered intraperitoneally once weekly for three weeks): induces CAPAN-1 tumour regression
effect on CAPAN-1 tumour growth ([11]; administered intravenously once weekly for three weeks): induces CAPAN-1 tumour regression
effect on HT-29 tumour growth [4]: induce transient regression of HT-29 tumours
Tumour growth inhibited [4]: 108%
effect on SW620 tumour growth [5]: induce regression of SW620 tumours
tolerability [5]: well tolerated
effect on MDA-MB-231 tumour growth [9]: induce MDA-MB-231 tumour regression
Max. body weight loss (%) [6, 13]: 4%
Max. body weight loss (%) [6, 14]: 10%
Max. body weight loss (%) [6, 15]: 22%
tolerability [6]: well tolerated
survival versus cetuximab ([12]; 2f 10 and 5 mg/kg vs cetuximab 25 mg/kg): prolonged survival versus cetuximab
survival versus irinotecan ([12]; 2f 10 and 5 mg/kg vs irinotecan 35 mg/kg, P<0.0001): significantly prolonged survival versus irinotecan

BHALys[Lys]32[α-Glu-C20-SN-38]32†[ε-PEG˜2300]32‡ [Dendrimer 2b]
% Release at 6 h in 9:1 PBS/DMA at 37° C. [2]: 0%
% Release at 18 h in 9:1 PBS/DMA at 37° C. [2]: 3%
% SN-38 released ([3]; 0.5 h): 0.93%
% SN-38 released ([3]; 2 h): 1.27%
% SN-38 released ([3]; 4 h): 1.94%
% SN-38 released ([3]; 6 h): 2.73%
% SN-38 released ([3]; 22 h): 12.17%

BHALys[Lys]32[α-TDA-C20-SN-38]32†[ε-PEG˜2300]32‡ [Dendrimer 2d]
GI50 [1]: 0.14 µM
% Release at 6 h in 9:1 PBS/DMA at 37° C. [2]: 5%
% Release at 18 h in 9:1 PBS/DMA at 37° C. [2]: 13%
% SN-38 released ([3]; 0.5 h): 1.87%
% SN-38 released ([3]; 2 h): 5.47%
% SN-38 released ([3]; 4 h): 9.50%
% SN-38 released ([3]; 6 h): 14.92%
% SN-38 released ([3]; 22 h): 46.69%

CCc1c2c(nc3ccc(O)cc13)-c1cc3c(c(=O)n1C2)COC(=O)[C@]3(O)CC [SN-38, reference compound]
GI50 ([1]; Homo sapiens): < 0.01 µM

O=C(c1cc(Cc2n[nH]c(=O)c3ccccc23)ccc1F)N1CCN(C(=O)C2CC2)CC1 [Olaparib, reference compound]
Percent TGI [7, 16]: 0%
effect on HT-29 tumour growth (in words) [7]: no effect on tumour growth

BHALys[Lys]32[α-DGA-C20-Irinotecan]32†[ε-PEG˜2300]32‡ [Dendrimer 2j]
GI50 [1]: 12 µM
